This note sets out measurements from US20250388664A1 (BIOARCTIC, published 2025).

Assay [1] deals with T1, AβpE3-40 monomer (UniProt P05067 674-711, pyroglutamate at position 3 (N-terminal residue)). The experiment in a line: cell-based or functional assay.
Assay [2] deals with T1, AβpE3-40 monomer. The assay is described as follows: SPR, antibody immobilised, monomer injected, 1:1 fit. The protocol:
Single cycle kinetics with the binding molecules immobilized on a CM5 chip was used to measure binding to the AβpE3-40 monomer. For the measurements, 5 μg/ml of analyte binding molecule was immobilized on the chip. […] Regeneration of the surface between cycles was done by injecting 30 μl 3 M MgCl₂ (Cytiva, cat. No. 29234600). The binding data was fitted to a 1:1 interaction model.
In general terms: Surface plasmon resonance follows binding to a sensor surface in real time, without labels.

For assay [3], the target named is T2, hTfR1 on cell surfaces (human, UniProt P02786 1-760).
T2 construct: Endogenous receptor on human cell lines; also called endogenous hTfR1 on hCMEC/D3, THP-1 and K562 cells; CD71
The assay is described as follows: flow cytometry on Fc-blocked K562 cells, 1 h at 4°C, detection with PE anti-human IgG Fc. For orientation: Flow cytometry measures light scatter and fluorescence of single cells or particles in a stream.

For assay [4], the target named is T1, AβpE3-40 monomer. The experiment in a line: inhibition ELISA, antigen titrated in solution, AβpE3-40 coat. As to the method: (§1) The tested molecules were incubated at a fixed concentration (0.1 μg/ml) with titrating concentrations of the different AβpE3 antigens. After incubation for 45 min at 900 rpm to reach equilibrium, the samples were added to a blocked and washed ELISA plate with an AβpE3-40 coat (0.5 μM). The samples were incubated on the plate for 25 min without shaking followed by washing, incubation with detection antibody, another washing step and finally incubation with alkaline phosphatase substrate.

For assay [5], the target named is T3, AβpE3-42 protofibrils (UniProt P05067 674-713, pyroglutamate at position 3 (N-terminal residue)).
T3 construct: range 3-42 (Aβ numbering); Soluble aggregates made from AβpE3-42 peptide, purified in the void peak of SEC; also called AβpE3-42 PF
T3 sequence (P05067 674-713): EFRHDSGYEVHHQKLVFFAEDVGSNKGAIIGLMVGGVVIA
The description is as above. The protocol: as §1

Assay [6] concerns the target T4, truncated hTfR1 of SEQ ID NO:122 (human, UniProt P02786 122-760).
T4 construct: also called human TfR1; Human TfR1
The experiment in a line: SPR, TfR1 amine-coupled, Fab injected, 1:1 fit. The procedure, abridged: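 Biacore 8K at 25 °C in HBS-EP+, single cycle kinetics with Fab as analyte in four 2-fold steps from 100 nM; 120 s contact at 30 μl/min, 1000 s dissociation, 3M MgCl₂ regeneration. Kinetics fitted to a 1:1 interaction model.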

Assay [7] concerns the target T5, truncated cTfR1 of SEQ ID NO:123 (cynomolgus monkey, UniProt Q5RDH6 122-760 (Pongo abelii entry)).
T5 construct: also called cynomolgus TfR1
T5 chain: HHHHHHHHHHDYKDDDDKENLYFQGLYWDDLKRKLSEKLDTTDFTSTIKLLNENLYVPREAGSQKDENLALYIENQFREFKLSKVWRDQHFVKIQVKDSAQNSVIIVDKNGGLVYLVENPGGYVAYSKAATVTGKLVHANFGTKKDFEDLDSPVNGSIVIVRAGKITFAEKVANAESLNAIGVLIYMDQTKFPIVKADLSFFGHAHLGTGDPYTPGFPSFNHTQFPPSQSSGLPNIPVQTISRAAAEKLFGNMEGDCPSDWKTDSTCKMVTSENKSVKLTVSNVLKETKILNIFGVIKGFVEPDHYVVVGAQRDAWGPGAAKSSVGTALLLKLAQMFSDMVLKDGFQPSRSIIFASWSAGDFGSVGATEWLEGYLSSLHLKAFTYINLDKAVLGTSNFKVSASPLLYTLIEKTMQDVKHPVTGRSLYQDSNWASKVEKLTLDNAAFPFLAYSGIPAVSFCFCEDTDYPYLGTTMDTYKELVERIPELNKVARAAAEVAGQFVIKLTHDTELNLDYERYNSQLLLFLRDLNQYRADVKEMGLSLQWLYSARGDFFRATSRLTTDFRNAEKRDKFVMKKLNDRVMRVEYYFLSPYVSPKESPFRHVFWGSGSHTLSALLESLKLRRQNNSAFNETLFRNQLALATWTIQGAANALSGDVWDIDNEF
The assay is described as follows: SPR (Biacore 8K), single cycle kinetics: cTfR1 amine-coupled on a CM5 chip, Fab injected in a 2-fold series of four steps from 100 nM. As to the method: Binding of the purified Fabs to human and cynomolgus TfR1 was evaluated using either SPR (FIG. 44) or indirect ELISA (FIG. 45). For SPR, a Biacore 8K instrument (Cytiva) was used. […] The Fabs were injected over the chip using a 2-fold dilution series in four steps starting at 100 nM. The interaction was measured using the single cycle kinetics method with a contact time of 120 s at a flow rate of 30 μl/min followed by a dissociation time of 1000 s. Regeneration of the surface between cycles was done by injecting 3M MgCl₂. The binding data was fitted to a 1:1 interaction model. The Fabs were diluted in HBS-EP+ (Cytiva, #BR100669). Experiments were performed at 25° C.

The target of assay [8] is T6, hTfR1 (recombinant, construct not specified) (human, UniProt P02786 89-760, limits assumed).
T6 construct: also called biotinylated hTfR1
The assay is described as follows: indirect ELISA on an hTfR1 coat, detection with anti-mouse IgG F(ab')2, normalised A450 against log antibody concentration in pM. For orientation: In an ELISA, binding on a coated surface is turned into a signal by an enzyme label.

For assay [9], the target named is T4, truncated hTfR1 of SEQ ID NO:122. The assay is described as follows: SPR, TfR1 amine-coupled, Fab injected, 1:1 fit. The protocol:
(§2) The interaction was measured using the single cycle kinetics method with a contact time of 120 s at a flow rate of […] followed by a dissociation time of 600 s. Regeneration of the surface between cycles was done by injecting 3M MgCl₂. The binding data were fitted to a 1:1 interaction model. The Fabs were diluted in HBS-EP+ (Cytiva, #BR100669). Experiments were performed at 25° C.
This is another data set of the same source.

Assay [10] addresses T5, truncated cTfR1 of SEQ ID NO:123. The experiment in a line: SPR, TfR1 amine-coupled, Fab injected, 1:1 fit. The protocol: as §2
Assay [11] concerns the target T6, hTfR1 (recombinant, construct not …). The assay is described as follows: BLI: hTfR1 captured on biotinylated human holo-transferrin on streptavidin sensors, 15 nM Fab in solution, 120 s association, 300 s dissociation. As to the method: A more detailed binding analysis by BLI was performed on purified, selected antibodies. […] For example, the BLI instrument Octet Red384 was used to measure binding between immobilized TfR1 and the tested Fab fragments in solution. […] Antibody binding to TfR1 was measured during an association phase of 120 s and a dissociation phase of 300 s.

Read-outs that look alike come from different tables or passages of the source.

T1 sequence (P05067 674-711): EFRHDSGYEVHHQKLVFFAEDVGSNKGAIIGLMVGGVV

B1: BA003 (antibody, human IgG1, kappa)
light: EIVLTQSPLSLSVTLGQSASISCRSSQSLLDSNGKTYLHWFILRPGQSPRRLIYLVSILDSGVPDRFSGSGSGTDFTLKISRVEAEDVGVYYCVQGTHFPFTFGSGTKLEIKRTVAAPSVFIFPPSDEQLKSGTASVVCLLNNFYPREAKVQWKVDNALQSGNSQESVTEQDSKDSTYSLSSTLTLSKADYEKHKVYACEVTHQGLSSPVTKSFNRGEC
heavy: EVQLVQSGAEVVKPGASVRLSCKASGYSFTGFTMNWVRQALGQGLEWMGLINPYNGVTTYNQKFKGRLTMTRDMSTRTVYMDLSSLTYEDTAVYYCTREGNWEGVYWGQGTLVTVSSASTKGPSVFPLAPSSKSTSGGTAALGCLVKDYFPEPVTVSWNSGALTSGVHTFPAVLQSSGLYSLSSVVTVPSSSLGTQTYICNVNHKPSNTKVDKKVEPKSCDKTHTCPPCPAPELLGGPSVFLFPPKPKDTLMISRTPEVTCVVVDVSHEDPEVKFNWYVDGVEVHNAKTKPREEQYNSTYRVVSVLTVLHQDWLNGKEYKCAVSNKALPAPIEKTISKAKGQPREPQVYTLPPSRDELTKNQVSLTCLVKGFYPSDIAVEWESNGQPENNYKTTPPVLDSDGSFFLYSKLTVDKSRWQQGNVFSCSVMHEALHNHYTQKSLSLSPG
notes: also called comparator antibody BA003; control antibody BA003
Turning to B1, the “Uptake of AβpE3-40 monomers in THP-1 cells, EC50” value in assay [1] was 2.2 nM. In assay [2], this molecule came in with a dissociation constant (Kd) of 2.33 nM, a koff of 0.000127 s⁻¹ and a kon of 54600 M⁻¹ s⁻¹. Also, in [3], the binding result is recorded as “no binding (tested: 10000 nM)”. Also, the IC50 in assay [4] worked out at 1.1 nM. For the same molecule, the IC50 in assay [5] turned out to be 2.2 nM.

B2: h26D3 variant LC5 Fab (Fab, V domains shown)
VH: EVQLVQSGAEVKKPGSSVKVSCKASGYIFTDYNMDWVRQAPGQGLEWIGDINPDYDTTSYNEKFKGRATLTVDKSTSTAYMELSSLRSEDTAVYYCARGGYSGSSYYHPMDYWGQGTLVTVSS
VL: DIQMTQSPSSVSASVGDRVTITCKSSQSLLYSTNQKNYLAWYQQKPGKAPKLLIYWASTRESGVPSRFSGSGSGTDFTLTISSLQPEDFATYYCQQAFIYPRTFGQGTKVEIK
notes: Single-mutant His-tagged Fab; also called Y97A
The molecule B2 gave an equilibrium dissociation constant (Kd) in assay [6] of 240 nM. Besides, the binding result in [7] is “binds”.

B3: 26D3-Fab (Fab, V domains shown)
VH: EVQLQQFGVELVKPGASVKISCKASGYIFTDYNMDWVKQSHGKSLEWIGDINPDYDTTSYNEKFKGKATLTVDKSSSTAYMELRSLTSEDTAVYYCARGGYSGSSYYHPMDYWGQGTSVTVSS
VL: DIVMSQSPSSLAVSVGEKITMSCKSSQSLLYSTNQKNYLAWYQQKPGQSPELLIYWASTRESGVPDRFTGSGSGTDFTLTISNVRAEDLAVYYCQQYFIYPRTFGGGTKLEIK
notes: Fab of murine 26D3; also called murine 26D3 Fab
In the case of B3, the concentration for a half-maximal effect (EC50 (read off the curve)) in [8] is roughly 0.06 nM. Moreover, the Kd in assay [9] is 3.6 nM; in [10], 10 nM.

B4: 37D10-Fab (Fab, V domains shown)
VH: QVQLQQSGAELVRPGTSVKISCKASGYAFTNYWLGWVKQRPGHGLEWIGDIFPGSDNTYYNEKFKGKATLTADKSSSTAYMQLSSLASEDSAVYFCARSGNFYAMDYWGQGTSVTVSS
VL: ENVLTQSPAIMSASPGEKVTMTCSASSSVNYMNWYQQKSSTFPKLWIYDTSKLASGVPGRFSGSGSGKFYSLTISSMEAEDVATYYCFQGSGYPFTFGSGTKLEIK
notes: Fab of murine 37D10
On to B4, for which, in assay [11], the binding result was “binds”.

The term Kd denotes a measure of binding affinity in units of concentration. Lower therefore signals tighter binding. By koff is commonly meant a measure of how fast the partners let go of each other. Low readings indicate a long-lived complex, high ones a short-lived complex. What is called kon is a measure of how fast the partners come together. A low value points to slower complex formation. Broadly, the IC50 is the concentration needed to halve the response being measured. The EC50 (read off the curve) is the concentration needed to bring the measured effect to its halfway point.
